Measurements reported in paper PMC5825165, “EAT1 transcription factor, a non-cell-autonomous regulator of pollen production, activates meiotic small RNA biogenesis in rice anther tapetum” (PLoS Genetics, 2018).
One block for each binder: values may come before it.

Molecular target: T1, UDT1-nYFP (UNDEVELOPED TAPETUM1 fused with the N-terminal split of YFP) (rice (japonica cv. Nipponbare), UniProt B9FXT3 1-234)
T1 sequence (looked up): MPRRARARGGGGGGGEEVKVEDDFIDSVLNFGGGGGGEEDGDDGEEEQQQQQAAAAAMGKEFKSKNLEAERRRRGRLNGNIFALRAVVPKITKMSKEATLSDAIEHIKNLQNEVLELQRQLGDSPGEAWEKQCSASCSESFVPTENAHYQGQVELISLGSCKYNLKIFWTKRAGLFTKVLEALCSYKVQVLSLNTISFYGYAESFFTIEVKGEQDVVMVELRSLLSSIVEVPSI
Assay: cell-based or functional assay

transient expression assay in rice protoplasts: firefly Luciferase activity of the 24-PHAS chr5-20 promoter on EAT1-UDT1 cotransfection (untagged effectors), fold against the no effector control: 4.46 fold
transient expression assay in rice protoplasts: firefly Luciferase activity of the 24-PHAS chr6-97 promoter on EAT1-UDT1 cotransfection (untagged effectors), fold against the no effector control: 3.99 fold
transient expression assay in rice protoplasts: firefly Luciferase activity of the EAT1 promoter (pEAT1) on EAT1-UDT1 cotransfection (untagged effectors): 7.61 fold
B1: EAT1-cYFP (ETERNAL TAPETUM1 fused with the C-terminal split of YFP) (natural protein, rice (japonica cv. Nipponbare), UniProt Q7X8R0 1-464, looked up)
chain: MIVGAGYFEDSHDQSLMAGSLIHDSNQAPASSENTSIDLQKFKVHPYSTEALSNTANLAEAARAINHLQHQLEIDLEQEVPPVETANWDPAICTIPDHIINHQFSEDPQNILVEQQIQQYDSALYPNGVYTPAPDLLNLMQCTMAPAFPATTSVFGDTTLNGTNYLDLNGELTGVAAVPDSGSGLMFASDSALQLGYHGTQSHLIKDICHSLPQNYGLFPSEDERDVIIGVGSGDLFQEIDDRQFDSVLECRRGKGEFGKGKGKANFATERERREQLNVKFRTLRMLFPNPTKNDRASIVGDAIEYIDELNRTVKELKILVEQKRHGNNRRKVLKLDQEAAADGESSSMRPVRDDQDNQLHGAIRSSWVQRRSKECHVDVRIVDDEVNIKLTEKKKANSLLHAAKVLDEFQLELIHVVGGIIGDHHIFMFNTKVSEGSAVYACAVAKKLLQAVDVQHQALDIFN

transient expression assay in rice protoplasts: firefly Luciferase activity of the 24-PHAS chr5-20 promoter on TIP2-UDT1 cotransfection (untagged effectors): 8.63 fold
transient expression assay in rice protoplasts: firefly Luciferase activity of the 24-PHAS chr6-97 promoter on TIP2-UDT1 cotransfection (untagged effectors): 2.73 fold
transient expression assay in rice protoplasts: firefly Luciferase activity of the DCL5 promoter (pDCL5) on TIP2-UDT1 cotransfection (untagged effectors): 4.91 fold
transient expression assay in rice protoplasts: firefly Luciferase activity of the EAT1 promoter (pEAT1) on TIP2-UDT1 cotransfection (untagged effectors): 5.72 fold
B2: TIP2-cYFP (TDR INTERACTING PROTEIN2 fused with the C-terminal split of YFP) (natural protein, rice (japonica cv. Nipponbare), UniProt Q5JNS0 1-379, looked up)
chain: MYHPQCELLMPLESLEMDVGQSHLAAAVAAAMPGELNFHLLHSLDAAAAAASSTAASASSQPTVDYFFGGADQQPPPPAAMQYDQLAAPHHHQTVAMLRDYYGGHYPPAAAAAAATEAYFRGGPRTAGSSSLVFGPADDESAFMVGPFESSPTPRSGGGRKRSRATAGFHGGGPANGVEKKEKQRRLRLTEKYNALMLLIPNRTKEDRATVISDAIEYIQELGRTVEELTLLVEKKRRRREMQGDVVDAATSSVVAGMDQAAESSEGEVMAAAAMGAVAPPPRQAPIRSTYIQRRSKETFVDVRIVEDDVNIKLTKRRRDGCLAAASRALDDLRLDLVHLSGGKIGDCHIYMFNTKIHSGSPVFASAVASRLIEVVDEY
